These results are taken from patent publication US20240392024A1.

The target in this experiment is human TNFR2 on the cell membrane (human) (UniProt P20333). As to the kind of experiment: flow cytometry on human PBMC, CD3+ T cells. Background: Flow cytometry measures light scatter and fluorescence of single cells or particles in a stream.
Chain of human TNFR2 on the cell membrane (human) (P20333 23-461): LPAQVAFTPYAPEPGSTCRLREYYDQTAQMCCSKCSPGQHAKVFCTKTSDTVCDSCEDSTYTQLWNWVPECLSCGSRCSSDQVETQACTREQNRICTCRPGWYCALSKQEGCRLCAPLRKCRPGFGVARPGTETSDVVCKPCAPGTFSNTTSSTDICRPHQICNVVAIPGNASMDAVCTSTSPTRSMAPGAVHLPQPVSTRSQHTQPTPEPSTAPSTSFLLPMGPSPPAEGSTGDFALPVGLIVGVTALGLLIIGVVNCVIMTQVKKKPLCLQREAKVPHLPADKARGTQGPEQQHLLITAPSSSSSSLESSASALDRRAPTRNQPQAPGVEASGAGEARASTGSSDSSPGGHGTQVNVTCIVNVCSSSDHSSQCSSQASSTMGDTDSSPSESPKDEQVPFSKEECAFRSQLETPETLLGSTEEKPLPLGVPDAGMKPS

As for Isotype Ctrl (antibody), the percent of cells in the upper right quadrant (Q1-UR, CD3+ and anti-human IgG Fc+) was 5.48%.
